What all share (experiment): cell-based or functional assay
In assay [1] the target is human mature BMP7 protein variant F9 (SEQ ID NO: 8) (human) (UniProt P18075).
The target in assay [2] is human pro-BMP7 protein variant F9 (human) (UniProt P18075).
Assay [3] addresses wild type human mature BMP7 (SEQ ID NO: 2) (human) (UniProt P18075).
The target of assay [4] is wild type human pro-BMP7 (human) (UniProt P18075).
Chain of wild type human pro-BMP7 (human) (P18075 293-431, chain 1 of 2): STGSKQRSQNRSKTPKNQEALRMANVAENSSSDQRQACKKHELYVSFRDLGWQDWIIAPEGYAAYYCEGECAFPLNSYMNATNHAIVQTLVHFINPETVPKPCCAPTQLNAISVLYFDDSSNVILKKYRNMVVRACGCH
Chain of wild type human pro-BMP7 (human) (P18075 other isoform, or with tags, fused parts or gaps, chain 2 of 2): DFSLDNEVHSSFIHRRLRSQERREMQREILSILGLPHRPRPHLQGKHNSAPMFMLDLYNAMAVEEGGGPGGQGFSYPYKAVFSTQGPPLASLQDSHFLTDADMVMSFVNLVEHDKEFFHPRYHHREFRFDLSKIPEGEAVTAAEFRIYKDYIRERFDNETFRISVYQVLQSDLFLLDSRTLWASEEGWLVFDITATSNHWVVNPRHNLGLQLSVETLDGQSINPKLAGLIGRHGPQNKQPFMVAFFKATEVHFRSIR

Chain of wild type human mature BMP7 (SEQ ID NO: 2) (human) (P18075 293-431): as the sequence (P18075 293-431, chain 1 of 2) above
Chain of human mature BMP7 protein variant F9 (SEQ ID NO: 8) (human) (P18075 other isoform, or with tags, fused parts or gaps mutant): as the sequence (P18075 293-431, chain 1 of 2) above, with Y65G, I86L, F93V, N110G, Y128W counted along it
Chain of human pro-BMP7 protein variant F9 (human) (P18075 other isoform, or with tags, fused parts or gaps mutant, chain 1 of 2): as the sequence (P18075 293-431, chain 1 of 2) above, with Y65G, I86L, F93V, N110G, Y128W counted along it
Chain of human pro-BMP7 protein variant F9 (human) (P18075 other isoform, or with tags, fused parts or gaps mutant, chain 2 of 2): as the sequence (P18075 other isoform, or with tags, fused parts or gaps, chain 2 of 2) above

B1: Noggin (protein, UniProt Q13253 28-232, looked up, species assumed)
Noggin: QHYLHIRPAPSDNLPLVDLIEHPDPIFDPKEKDLNETLLRSLLGGHYDPGFMATSPPEDRPGGGGGAAGGAEDLAELDQLLRQRPSGAMPSEIKGLEFSEGLAQGKKQRLSKKLRRKLQMWLWSQTFCPVLYAWNDLGSRFWPRYVKVGSCFSKRSCSVPEGMVCKPSKSVHLTVLRWRCQRRGGQRCGWIPIQYPIISECKCSC
Turning to B1, in assay [1], the % inhibition, 0.01X molar excess of inhibitor (hepcidin promoter luciferase, Hep3B2 HepPro luc cells) was -2.6%; the % inhibition, 0.1X molar excess of inhibitor (hepcidin promoter luciferase, Hep3B2 HepPro luc cells) is -7.2%; the % inhibition, 1X molar excess of inhibitor (hepcidin promoter luciferase, Hep3B2 HepPro luc cells) is -6.9%; the % inhibition, 10X molar excess of inhibitor (hepcidin promoter luciferase, Hep3B2 HepPro luc cells) is -1.2%. Moreover, in assay [2], the % inhibition, 0.1X molar excess of inhibitor (hepcidin promoter luciferase, Hep3B2 HepPro luc cells) was -15.2%; the % inhibition, 1X molar excess of inhibitor (hepcidin promoter luciferase, Hep3B2 HepPro luc cells) was -18.3%; the % inhibition, 10X molar excess of inhibitor (hepcidin promoter luciferase, Hep3B2 HepPro luc cells) is -23.6%; the % inhibition, 100X molar excess of inhibitor (hepcidin promoter luciferase, Hep3B2 HepPro luc cells) is -28.1%. Also, in assay [3], the % inhibition, 0.1X molar excess of inhibitor (hepcidin promoter luciferase, Hep3B2 HepPro luc cells) was -12.2%; the % inhibition, 1X molar excess of inhibitor (hepcidin promoter luciferase, Hep3B2 HepPro luc cells) turned out to be 36.7%; the % inhibition, 10X molar excess of inhibitor (hepcidin promoter luciferase, Hep3B2 HepPro luc cells) was determined as 72.8%; the % inhibition, 100X molar excess of inhibitor (hepcidin promoter luciferase, Hep3B2 HepPro luc cells) stood at 73.7%. In addition, in assay [4], the % inhibition, 0.1X molar excess of inhibitor (hepcidin promoter luciferase, Hep3B2 HepPro luc cells) was -5.3%; the % inhibition, 1X molar excess of inhibitor (hepcidin promoter luciferase, Hep3B2 HepPro luc cells) stood at 24.8%; the % inhibition, 10X molar excess of inhibitor (hepcidin promoter luciferase, Hep3B2 HepPro luc cells) worked out at 84.8%; the % inhibition, 100X molar excess of inhibitor (hepcidin promoter luciferase, Hep3B2 HepPro luc cells) was 87.3%.

B2: Coco (protein, UniProt Q8N907 23-189, looked up, species assumed)
DAN domain family member 5: RPEPQSPRPQSWAAANQTWALGPGALPPLVPASALGSWKAFLGLQKARQLGMGRLQRGQDEVAAVTLPLNPQEVIQGMCKAVPFVQVFSRPGCSAIRLRNHLCFGHCSSLYIPGSDPTPLVLCNSCMPARKRWAPVVLWCLTGSSASRRRVKISTMLIEGCHCSPKA
With B2, in assay [1], the % inhibition, 0.01X molar excess of inhibitor (hepcidin promoter luciferase, Hep3B2 HepPro luc cells) was determined as 2.3%; the % inhibition, 0.1X molar excess of inhibitor (hepcidin promoter luciferase, Hep3B2 HepPro luc cells) was 7%; the % inhibition, 1X molar excess of inhibitor (hepcidin promoter luciferase, Hep3B2 HepPro luc cells) stood at 7.3%; the % inhibition, 10X molar excess of inhibitor (hepcidin promoter luciferase, Hep3B2 HepPro luc cells) came out at 28.5%. For the same molecule, in assay [2], the % inhibition, 0.1X molar excess of inhibitor (hepcidin promoter luciferase, Hep3B2 HepPro luc cells) was -35.4%; the % inhibition, 1X molar excess of inhibitor (hepcidin promoter luciferase, Hep3B2 HepPro luc cells) was -27.5%; the % inhibition, 10X molar excess of inhibitor (hepcidin promoter luciferase, Hep3B2 HepPro luc cells) was determined as 7%. For the same molecule, in assay [3], the % inhibition, 0.1X molar excess of inhibitor (hepcidin promoter luciferase, Hep3B2 HepPro luc cells) was -23.6%; the % inhibition, 1X molar excess of inhibitor (hepcidin promoter luciferase, Hep3B2 HepPro luc cells) was -25.9%; the % inhibition, 10X molar excess of inhibitor (hepcidin promoter luciferase, Hep3B2 HepPro luc cells) was found to be 37.6%; the % inhibition, 100X molar excess of inhibitor (hepcidin promoter luciferase, Hep3B2 HepPro luc cells) stood at 77.4%. For the same molecule, in assay [4], the % inhibition, 0.1X molar excess of inhibitor (hepcidin promoter luciferase, Hep3B2 HepPro luc cells) is -10.2%; the % inhibition, 1X molar excess of inhibitor (hepcidin promoter luciferase, Hep3B2 HepPro luc cells) is 4%; the % inhibition, 10X molar excess of inhibitor (hepcidin promoter luciferase, Hep3B2 HepPro luc cells) turned out to be 17.4%; the % inhibition, 100X molar excess of inhibitor (hepcidin promoter luciferase, Hep3B2 HepPro luc cells) stood at 81.6%.

The values above are taken from patent publication US20210115100A1.
